Consider two substances from article doi:10.1101/216812.

In the test the target is biotinylated, taxol-stabilized microtubules tethered to coverslips (TIRF binding assays). Put plainly: TIRF microscopy of single particles.

Substance “549SNAP-6HIS-3FLAG-KKT4 charge-reversal mutant (R123E, K132E, R154E), full length (natural protein)” gave a fold change of average residence time against wild-type KKT4 of 2 fold.

In turn, “549SNAP-6HIS-3FLAG-KKT4, full-length wild-type KKT4 (natural protein)” gave an average residence time of 5.4 s.
